Data reported in US20220062373A1 (published 2022).

Target: T1, Recombinant human CD206 (MRC1/CD206) (human, UniProt P22897 19-1383)
T1 chain: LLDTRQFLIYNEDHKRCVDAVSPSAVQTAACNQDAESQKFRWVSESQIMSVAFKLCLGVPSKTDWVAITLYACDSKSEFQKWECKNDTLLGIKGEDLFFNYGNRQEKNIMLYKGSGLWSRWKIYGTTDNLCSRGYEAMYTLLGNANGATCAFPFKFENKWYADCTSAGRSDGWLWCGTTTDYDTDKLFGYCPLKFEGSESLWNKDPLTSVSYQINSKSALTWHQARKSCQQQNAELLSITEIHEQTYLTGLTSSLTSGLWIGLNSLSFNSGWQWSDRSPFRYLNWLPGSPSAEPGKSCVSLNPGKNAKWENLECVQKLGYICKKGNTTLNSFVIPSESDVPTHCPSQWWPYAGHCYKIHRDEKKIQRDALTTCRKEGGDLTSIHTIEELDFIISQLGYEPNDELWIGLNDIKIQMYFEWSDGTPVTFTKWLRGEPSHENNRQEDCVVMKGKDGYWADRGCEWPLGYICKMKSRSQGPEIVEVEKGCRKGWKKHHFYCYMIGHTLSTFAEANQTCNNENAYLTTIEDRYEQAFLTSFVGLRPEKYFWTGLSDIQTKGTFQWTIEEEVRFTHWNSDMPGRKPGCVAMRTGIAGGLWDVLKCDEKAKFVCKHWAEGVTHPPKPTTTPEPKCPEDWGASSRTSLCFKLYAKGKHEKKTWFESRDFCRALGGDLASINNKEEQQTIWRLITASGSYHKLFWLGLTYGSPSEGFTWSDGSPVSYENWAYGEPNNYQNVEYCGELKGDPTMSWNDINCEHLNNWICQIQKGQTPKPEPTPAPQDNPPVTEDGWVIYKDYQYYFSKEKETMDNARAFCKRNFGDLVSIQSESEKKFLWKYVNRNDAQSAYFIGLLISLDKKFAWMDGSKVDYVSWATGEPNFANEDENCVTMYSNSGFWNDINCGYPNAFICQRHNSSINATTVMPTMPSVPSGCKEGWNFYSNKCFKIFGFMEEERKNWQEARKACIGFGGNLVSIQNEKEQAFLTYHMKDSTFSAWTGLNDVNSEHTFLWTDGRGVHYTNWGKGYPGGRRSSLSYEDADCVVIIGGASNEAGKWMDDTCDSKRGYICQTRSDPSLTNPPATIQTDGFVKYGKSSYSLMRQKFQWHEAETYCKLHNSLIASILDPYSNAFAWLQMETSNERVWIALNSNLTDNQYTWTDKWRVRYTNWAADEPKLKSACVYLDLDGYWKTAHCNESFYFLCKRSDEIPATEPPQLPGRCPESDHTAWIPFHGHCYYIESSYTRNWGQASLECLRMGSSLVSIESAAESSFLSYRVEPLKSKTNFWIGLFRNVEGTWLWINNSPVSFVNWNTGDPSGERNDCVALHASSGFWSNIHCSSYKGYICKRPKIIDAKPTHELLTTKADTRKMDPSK
Assay: MST

- Kd: 8.37 µM
Binder: KFRKAFKRFF [RP-182]
